In publication PMC9640584, “An active site loop toggles between conformations to control antibiotic hydrolysis and inhibition potency for CTX-M β-lactamase drug-resistance enzymes” (Nature Communications, 2022):

B1: β-lactamase inhibitory protein (BLIP), wild type (natural protein)
chain: AGVMTGAKFTQIQFGMTRQQVLDIAGAENCETGGSFGDSIHCRGHAAGDYYAYATFGFTSAAADAKVDSKSQEKLLAPSAPTLTLAKFNQVTVGMTRAQVLATVGQGSCTTWSEYYPAYPSTAGVTLSLSCFDVDGYSSTGFYRGSAHLWFTDGVLQGKRQWDLV
notes: No removal of the His tag is described; source: E. coli RB791, plasmid pGR32, purified (Co2+ Talon column, gel filtration)

Tests used:
Assay in all cases: enzyme inhibition assay (nitrocefin hydrolysis, Ki by fit to the Morrison equation); increasing concentrations of BLIP incubated with β-lactamase (0.05-0.6 nM) for 20 min, then nitrocefin added; initial velocity at 482 nm; 50 mM sodium phosphate pH 7.0, 100 μg/ml BSA
[1] = target: CTX-M-15 N106S β-lactamase (Klebsiella pneumoniae)
[2] = target: CTX-M-15 β-lactamase, wild type (Klebsiella pneumoniae)
[3] = target: CTX-M-14 N106S β-lactamase
[4] = target: CTX-M-15 G240D β-lactamase (Klebsiella pneumoniae)
[5] = target: T1, CTX-M-14 β-lactamase, wild type (UniProt Q9L5C7 29-291); conditions: both partners purified
T1 construct: also called CTX-M-14 wild type; source: E. coli BL21(DE3), pET28a, purified (Co2+ Talon, TEV cleavage, Ni2+ Sepharose); not shown: His6, N-terminal, cleaved

Row | Molecule | Ki [1] [nM] | Ki [2] [nM] | Ki [3] [nM] | Ki [4] [nM] | Ki [5] [nM]
1 | β-lactamase inhibitory protein (BLIP), wild type (from UniProt P35804) (natural protein) | 0.35 | 2.9 | 2.1 | 5 | –
2 | B1 | – | – | – | – | 330
